Assay results taken from the supplement of paper PMC9170038.

Tested on: MS2 coat protein
Experiment: apparent KD of MS2 coat protein; designed switch direction (-1 OFF switch, 1 ON switch): 1; higher = weaker reporter binding
In short: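 For each design, the apparent KD is the median over clusters of curves fitted to normalised cluster fluorescence. Clusters held RNA switches with common flanks, transcribed on Illumina chips by stalled E. coli RNA polymerase. These were titrated with SNAP-549-labelled MS2 coat protein, doubling from 0.7 or 1.5 nM to 3 µM, without input, with 200 uM small-molecule ligand, or with an oligonucleotide input.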

[1] = input ligand: microRNA oligo, concentration not stated
[2] = Eterna round: R95, input ligand: microRNA oligo, concentration not stated
[3] = Eterna round: R95, input ligand: FMN 200 uM
[4] = Eterna round: R95, input ligand: none

| Sequence | apparent KD of MS2 coat protein (input ligand: FMN 200 uM) | apparent KD of MS2 coat protein [1] | apparent KD of MS2 coat protein (input ligand: none) | apparent KD of MS2 coat protein [2] | apparent KD of MS2 coat protein [3] | apparent KD of MS2 coat protein [4] |
| --- | --- | --- | --- | --- | --- | --- |
| GGAAACAAGAGAGGAUAUGCAGAGGAUCACCCUGUAGAAGGCUCCCUAGAGAGGAUAUGCAGAGGAUCACCCUGCAGAAGGCUC [pwkr ssNG DX.18] (Eterna round: R96, puzzle: Same State NG 1) | 227 nM | 27.7 nM | 89.1 nM |  |  |  |
| GGUAUCAGCACAGGAUAUGCUAUCCUUUGGGUAGCAGAAGGGUGGACAUGAGGAUCACCCAUGUGGGUGCCAGGGCGUGAGCCC [JL SSNG1 1.86] (Eterna round: R96, puzzle: Same State NG 1) | 426 nM | 75.9 nM | 323 nM |  |  |  |
| GGUAGGUUACUACCAAACUACAUGAGGAUCACCCAUGUGUGGGAGGAUAUGGUACCUAUUUGGUACCAGAAGGUCCAAUUAAUU [Fiskers NG3ss - 6] (Eterna round: R96, puzzle: Same State NG 3) | 108 nM | 106 nM | 124 nM |  |  |  |
| GAGGGACAGACCAACAUGAGGAUCACCCAUGUCCUCGCUGGUCAGGAUAUCCCGCCAACAGGCGAGGAGAAGGGACGGUGAACC (Eterna round: R96, puzzle: Same State NG 3) | 1110 nM | 425 nM | 724 nM |  |  |  |
| GGUAUCAUCACAGGAUAUGCUAUCCUUUGGGUAGCAGAAGGGUGGAACAUGAGGAUCACCCAUGUGGUGCCAGGGCGUGAGCCC [JL SSNG1 1.89] (Eterna round: R96, puzzle: Same State NG 1) | 177 nM | 583 nM | 1880 nM |  |  |  |
| GCGCAGCCGGGUGAGGAUAUCGGUGGUAAAACAUGAGGAUCACCCAUGUCCGAAGCUCGGACUUCCGAGAAGGCGCCCAGCUGCA [Erisin] (puzzle: Same State 2) |  |  |  | 61.2 nM |  |  |
| UCUUGGUUUUUGCUCGUUUUUUGUGUUGAACAUGAGGAUCACCCAUGUAUUGUACGGUCCAAUUUAAUAAUGGUCCG [JMF 23] (puzzle: Sensor for hsa-mir-208a) |  |  |  | 14.3 nM | 26.3 nM | 26.9 nM |
| GUAGCAUACCGAGGAUAUUCAUAUUAAAACAUGAGGAUCACCCAUGUUUAGGCCAAAAGGCCUUGGGAGAAGGCGGAAUGCUAC [Xeonanis - 20 Mod4] (Eterna round: R96, puzzle: Same State NG 2) | 19.2 nM | 17.9 nM | 25.1 nM |  |  |  |
| GUAUAACAUGAGGAUCACCCAUGUCAACAAAGUCGAGGAUAUGGGCAUAGAUUAUAAGAACCAGAAGGCGAAUAUG [Mat - Same State 1 - Mod of UCT - D42] (puzzle: Same State 1) |  |  |  | 219 nM | 119 nM | 666 nM |
| UAGAAACAUGAGGAUCACCCAUGUGUCAAAGACAUAGGAUAUCAUAACUGGCGCCAGUUAUGAGAAGGGUGGUAAA [Belezaqu] (puzzle: Same State 1) |  |  |  | 52.6 nM | 33.8 nM | 170 nM |
| UCGGGCGUACUUGCUGACAUGAGGAUCACCCAUGUCCUUGGGAAGGAUAUGGUUCCGUUUCGGUUCCAGAAGGUCCUGGCUGCU [salish99_SSNG3_r04_317] (Eterna round: R96, puzzle: Same State NG 3) | 30.1 nM | 42.6 nM | 78.2 nM |  |  |  |
| GGCUAGGAUAUCUGCAGGAUCACCGCGGAGAAGGAGCUAAGCUAGGAUAUCCGCAGGAUCACCGCGGAGAAGGAGCAUCAUCUC [pwkr ssNG3 DX 2xF5 +2xFMN.16] (Eterna round: R96, puzzle: Same State NG 3) | 135 nM | 123 nM | 429 nM |  |  |  |
| GUGGUCAGACAUGAGGAUCACCCAUGUGGAAUAAAUAACAGACAGGAUAUUUAAUAUAGGAUAUAGAAGAAGGGUCGAUUGGUG (Eterna round: R96, puzzle: Same State NG 3) | 117 nM | 87.5 nM | 103 nM |  |  |  |
| AUGCAGCUACCACAGGAUAUACGUGGAUCGACAUGAGGAUCACCCAUGUAUAUCCUAAUAAUUGCGUAGAAGGGUGGUCAGCUGC [Tezaqutete] (puzzle: Same State 2) |  |  |  | 696 nM |  |  |
| AUUAUACAUGAGGAUCACCCAUGUAAUUAAUUAAUUAAGAUCUAGGAUAUCAGCUCGAUUAGAGCUGAGAAGGAGAUCACAUGU [SSNG3/20-C2] (Eterna round: R96, puzzle: Same State NG 3) |  | 21.2 nM |  |  |  |  |
| AUUGCUAGCACAGGAUAUCAUGCGAAAAUUGCGUGAGAAGGGUGGACGCUGUCAUUCACGGAGGACAUGAGGAUCACCCAUGUC [SameState NG1 #78] (Eterna round: R96, puzzle: Same State NG 1) | 54.4 nM | 53.4 nM | 62.6 nM |  |  |  |
| GAGUGGUAGAGAGGAUAUGCAUUGUUAUUAAAUGCAGAAGGUUUUAACAUGAGGAUCACCCAUGUAGGACUAUUCCUGUGUUUC [Parity 66 - Jieux - Same State NG 1] (Eterna round: R96, puzzle: Same State NG 1) |  | 10.8 nM |  |  |  |  |
| CCGAUGAUAGGACAGGAUAUGACUGUCGUCACAUGAGGAUCACCCAUGUCCCGGCAAUGCCACCGUUAGAAGGGUCCUAUCUCGG [Orraais] (puzzle: Same State 2) |  |  |  | 11.9 nM |  |  |
